Results from US20250289899A1 (Genmab, published 2025).

Experiments:
[1] = biological target: T1, recombinant His-tagged human FcγRIIa (167-His [H]) (human, UniProt P12318 34-218, limits assumed); assay: SPR (Biacore), His-tagged FcγRIIa-H captured on anti-His chip, antibody in solution, resonance units against antibody concentration
T1 construct: Bought; captured on anti-His chip; also called FcγRIIa-H; not shown: His tag
T1 sequence (looked up): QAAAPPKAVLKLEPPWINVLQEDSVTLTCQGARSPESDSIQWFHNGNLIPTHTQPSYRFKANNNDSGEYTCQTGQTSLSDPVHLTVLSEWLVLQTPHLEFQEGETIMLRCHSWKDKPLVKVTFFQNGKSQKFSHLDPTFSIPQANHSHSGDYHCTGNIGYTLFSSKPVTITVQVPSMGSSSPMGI

[2] = biological target: T2, human CD27, full length, on cells (T cells, transfected HEK293F cells, Daudi cells, NFκB-luc2/CD27 Jurkat … (human, UniProt P26842 20-240)); assay: flow cytometry on CD4+ T cells in human PBMC, FITC goat anti-human IgG F(ab')2, median FITC
T2 construct: Residues 1-19 are stated to be the signal peptide; also called TNFRSF7
T2 sequence: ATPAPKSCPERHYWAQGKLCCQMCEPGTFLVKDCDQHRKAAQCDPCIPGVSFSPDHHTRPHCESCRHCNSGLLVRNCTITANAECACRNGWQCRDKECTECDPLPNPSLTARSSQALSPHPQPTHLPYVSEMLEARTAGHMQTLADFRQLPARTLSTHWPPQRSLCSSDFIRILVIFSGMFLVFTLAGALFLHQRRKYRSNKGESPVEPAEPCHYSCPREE
Description: Binding of IgG1-CD27-A-P329R-E345R to CD27 on human healthy donor T cells was characterized in more detail using flow cytometry. Anti-HIV gp120 antibody variant IgG1-b12-P329R-E345R was used as non-binding control antibody (ctrl). Human PBMCs were isolated from buffy coats obtained from human healthy donors. PBMC (1×10⁵ cells/well) in FACS buffer were added to polystyrene 96-well round-bottom plates (Greiner bio-one, Cat #650101) and pelleted by centrifugation at 300×g for 3 min at 4° C. The cells were resuspended in 50 μL/well serial antibody dilutions in FACS buffer (range 0.0015 to 10 μg/mL in 3-fold dilution steps) and incubated for 30 min at 4° C. Cells were pelleted, washed twice with FACS buffer and incubated in 50 μL/well with FITC-conjugated secondary antibody (FITC AffiniPure F(ab′)₂ fragment goat anti-human IgG, F(ab′)₂ fragment specific, Jackson ImmunoResearch, Cat #109-096-097, diluted 1:100) for 30 min at 4° C. in the dark. […] The samples were measured by flow cytometry on an LSRFortessa (BD) flow cytometer and analyzed using FlowJo software. Binding curves were analyzed using non-linear regression (sigmoidal dose-response with variable slope) using GraphPad Prism 8 software.

[3] = biological target: T3, recombinant His-tagged human FcγRIa (human, UniProt P12314 16-288, limits assumed); assay: SPR (Biacore), His-tagged FcγRIa captured on anti-His chip, antibody in solution, resonance units against antibody concentration
T3 construct: Bought; captured on anti-His chip; not shown: His tag
Description: Biacore surface chips were covalently linked with anti-His antibody and coated with recombinant His-tagged Fc receptors (A) FcγRIa, (B) FcγRIIa-H, (C) FcγRIIa-R, (D) FcγRIIb, (E) FcγRIIIa-F, or (F) FcγRIIIa-V. The anti-HIV-gp120 antibody IgG1-b12 (ctrl) was included as a reference. Shown are absolute resonance units as determined by Biacore SPR after background subtraction (no Fc receptor flow-cell).
Binding of IgG1-CD27-A-P329R-E345R to human FcγR variants was analyzed using a Biacore surface plasmon resonance (SPR) system and compared to an anti-HIV gp120 antibody IgG1-b12 (ctrl). Biacore Series S Sensor Chips CM5 (Cytiva, Cat #29104988) were covalently coated with anti-His antibody using amine-coupling and His capture kits (Cytiva, Cat #BR100050 and Cat #29234602) according to the manufacturer's instructions. […] After three cycles of buffer, antibody samples were injected for 36 cycles to generate binding curves using antibody ranges of 0-3,000 nM for FcγRI and 0-10,000 nM for the other FcγRs. Each sample that was analyzed on an FcR-coated surface (Active Surface) was also analyzed on a parallel flow-cell without FcR (Reference Surface), which was used for background correction. Dissociation from the anti-His-coated surface was performed by regeneration of the surface using 10 mM Glycine-HCl pH 1.5 (Cytiva, Cat #BR100354). […]

T3 sequence (P12314 16-288 limits assumed): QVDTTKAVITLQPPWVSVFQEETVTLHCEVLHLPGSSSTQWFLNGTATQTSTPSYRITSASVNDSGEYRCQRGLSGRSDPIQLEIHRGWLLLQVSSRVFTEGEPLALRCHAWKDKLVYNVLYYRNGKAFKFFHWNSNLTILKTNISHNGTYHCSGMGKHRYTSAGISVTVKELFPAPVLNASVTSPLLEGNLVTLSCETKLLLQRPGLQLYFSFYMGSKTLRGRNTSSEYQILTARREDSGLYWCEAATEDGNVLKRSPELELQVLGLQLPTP

B1: IgG1-CD27-A-P329R-E345R (antibody)
heavy: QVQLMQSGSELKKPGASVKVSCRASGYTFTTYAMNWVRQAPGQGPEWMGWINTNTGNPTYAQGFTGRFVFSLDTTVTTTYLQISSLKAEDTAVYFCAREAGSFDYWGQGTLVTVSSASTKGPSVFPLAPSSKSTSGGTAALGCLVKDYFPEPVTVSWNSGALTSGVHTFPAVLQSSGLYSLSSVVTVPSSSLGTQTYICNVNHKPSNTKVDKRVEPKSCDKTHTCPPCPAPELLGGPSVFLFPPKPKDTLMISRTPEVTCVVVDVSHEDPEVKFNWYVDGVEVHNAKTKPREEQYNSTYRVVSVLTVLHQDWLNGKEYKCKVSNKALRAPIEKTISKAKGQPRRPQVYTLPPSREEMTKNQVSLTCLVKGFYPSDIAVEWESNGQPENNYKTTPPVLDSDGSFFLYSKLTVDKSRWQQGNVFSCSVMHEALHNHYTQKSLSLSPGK
light: QSALTQPASVSGSPGQSITISCTGTSSDVYYYNYVSWYQQHPGRAPKLVIYDVSNRPSGVSNRFSGSKSGNTASLTISGLRAEDEADYYCSSYTVNRVWVFGGGTKLTVLGQPKAAPSVTLFPPSSEELQANKATLVCLISDFYPGAVTVAWKADSSPVKAGVETTTPSKQSNNKYAASSYLSLTPEQWKSHRSYSCQVTHEGSTVEKTVAPTECS
notes: also called IgG1-CD27-A-E345R-P329R
binding result [1]: no binding (tested: 10,000 nM)
EC50 (read off the curve) [2]: ~0.03 µg/mL
binding result [3]: binds
